Laboratory results published in the Human Domainome abundance scans (Beltran et al. 2025).

B1: Friend leukemia integration 1 transcription factor, residues 116 to 197; numbered along this chain, Q01543 (parent)
chain: NMTTNERRVIVPADPTLWTQEHVRQWLEWAIKEYSLMEIDTSFFQNMDGKELCKMNKEDFLRATTLYNTEVLLSHLSYLRES
B2: Retinoic acid receptor RXR-alpha, residues 132 to 208; numbered along this chain, P19793 (parent)
chain: KHICAICGDRSSGKHYGVYSCEGCKGFFKRTVRKDLTYTCRDNKDCLIDKRQRNRCQYCRYQKCLAMGMKREAVQEE

Variants of: B1
Assay: abundance fitness (aPCA) (normalised: wild type 0, dead -1); higher = more abundant; growth selection in yeast, the domain comes from the species named
Settings: Homo sapiens

Abundance fitness: each site, then its substitutions
T3: D -0.537; E -0.392; G -0.098; F 0.111; A 0.089; C 0.009
N1: Y 0.004; K -0.34; G -0.212; A -0.076; L -0.137; I 0.178; R -0.111; V -0.166; M -0.031
M2: K -0.314; L -0.005; R 0.057; W -0.057; I -0.081; F 0.092; E -0.361; P -0.099; G 0.119; Q 0.011; N -0.184; V -0.584; T -0.231; D -0.545

Variants of: B2
Assay: as above
Settings: Homo sapiens

Abundance fitness, by site and new letter:
A66: W -0.063; L 0.047; P -0.713; M -0.042; T 0.002; G 0.017; E 0.033; Q -0.031; H 0.045; D 0.031; I -0.032; C -0.099; S 0.015; N -0.005; V 0.029; K 0.045; Y -0.036; R -0.019; F 0.015
E77: C 0.013; D -0.002; V -0.002; N 0.065; T 0.106; Y 0.023; G 0.073; H 0.02; Q -0.012; I 0.038; K 0.008; F 0.1; L -0.012; M -0.034; R 0.003; W 0.04
G68: Y -0.227; C -0.136; E -0.112; Q -0.054; M -0.26; H -0.103; D -0.06; F -0.091; I -0.544; R -0.238; W -0.302; N -0.02; K -0.079; V -0.645; L -0.362; S -0.108; T -0.357
R53: L -0.041; C -0.063; W 0.006; G -0.009; M -0.065; D 0.002; E 0.061; F -0.044; A -0.008; P 0.027; T 0.063; Y 0.007; Q -0.028; N 0.03; S -0.076; H 0.015; I 0.014
V74: H -0.021; N -0.064; I -0.017; M -0.025; T 0; L -0.046; Q -0.007; E -0.018; W -0.074; P -0.002; C 0.017; S -0.059; K 0.056; G -0.028; Y -0.039; R -0.03; D -0.039; A -0.045
M67: V -0.009; A 0.009; N -0.006; F -0.017; W -0.055; R 0; I 0.007; Y -0.008; E -0.016; L 0.018; S 0.019; Q -0.017; C -0.019; K 0.007; G -0.023; P -0.621
C59: T -0.651; F -1.05; N -1.13; A -0.748; I -0.977; R -0.955; G -0.861; M -1.08; Y -0.418; P -0.753; K -1.05; V -0.915; S -0.657; W -0.427; H -0.066; L -0.911; E -0.59; D -0.647
Y61: H -0.08; C -0.06; N 0.101
R51: T 0.022; V -0.035; Q -0.015; W -0.038; S 0.017
K70: F 0.043; V 0.04; Y 0.037; H 0.037; S 0.002; E -0.074; D 0.006; N 0.061; W -0.005; P 0.021; L 0.01; Q -0.01; M -0.034; I 0.035; R -0.012; A -0.014
R71: K 0.043; Q 0.001; D 0.065; M -0.01; V 0.021; A 0.033; L 0.033; S 0.003; W -0.056; G -0.004; N 0.015; I 0.028; C -0.001; Y 0.006; F 0.01; T 0.019; E 0.006; H -0.007; P 0.005
M69: Q -0.157; G -0.159; I -0.275; W -0.007; V -0.319; S -0.262; E -0.322; A -0.069; K -0.482; D -0.733; R -0.875; T -0.343; L -0.036; F 0.051; H -0.548; C -0.09; P -0.856
Q57: E -0.045; P 0.032; T -0.065; N -0.052; I -0.167; V -0.04; R 0.003; L -0.016; C -0.037; D 0.05; G 0.03; Y -0.065; W -0.026; K -0.113
Y58: G -0.028; K 0.024; R -0.032; H 0.09; N -0.087; P -0.294; V -0.311; E 0.043; M -0.062; I -0.551; C -0.066; F -0.02; A -0.007; D 0.045; S 0; T -0.328
Q75: R 0.003; E 0.073; S -0.004; L -0.031; F -0.039; Y -0.092; K -0.047; D 0.022; N -0.052; T -0.011; M 0.043; V 0.013; C 0.026; P -0.002; G -0.006; A -0.049; W -0.129; H -0.049; I -0.014
C56: S -0.293; Y -0.431
E72: D 0.047; Q -0.042; I 0.046; M -0.07; S 0.034; H -0.109; T -0.026; R -0.017; F -0.19; W 0.041; V 0.16; L -0.046; G -0.096; C -0.047; A -0.022; P -0.12
A73: E -0.011; V -0.019; G -0.008; K -0.081; I 0.05; Q -0.04; P 0.011; S 0.004; T 0.009; W -0.007; L -0.027; Y -0.056; R -0.037; F -0.01; N 0.015; C 0.04; D 0.048; M 0.044
N54: Y -0.061; H 0.117; S -0.167; D -0.128
E76: V 0; M -0.036; Y -0.011; S -0.034; F 0.003; D 0.05; H -0.012; Q 0.001; N 0.022; K -0.099; G 0.05; R -0.037; P -0.054; T -0.049; L 0.01; W -0.052; C 0.023
C64: Y -0.421
L65: A -0.038; V 0.033; T 0.057; D -0.133; C 0.044; Y 0.015; M -0.058; G -0.148; I -0.132; N 0.11; F -0.036; R -0.111; W -0.108; K -0.008; Q 0.021; H -0.078; S -0.061
